Data: patent US20120316071A1 (published 2012)
One block for each binder: values may come before it.

Key:
[1] = molecular target: T1, rHuman ErbB2/Fc Chimera, CF (R&D Systems Cat#1129-ER) (human, UniProt P04626 23-652); test: Multispot ECL (MSD) assay, antigen spotted on plate, Fab at 0.0624 µM; blank spot 960
T1 construct: Bought recombinant protein; also called human epidermal growth factor 2 receptor (ErbB2); Fc part of the bought chimera not given

[2] = molecular target: T2, rHuman HGF R/c-MET/Fc Chimera, CF (R&D Systems Cat#358-MT/CF) (human, UniProt P08581 25-932); test: as above
T2 construct: Bought recombinant protein; also called HGF R/Fc; hepatocyte growth factor receptor (HGF R/c-Met); Fc part of the bought chimera not given

[3] = molecular target: T3, rHuman IGF-1 sR, (IGF-1 sR), CF (R&D Systems Cat#391-GR) (human, UniProt P08069 31-932); test: as above
T3 construct: Bought recombinant soluble receptor; also called insulin-like growth factor-1 soluble receptor

[4] = molecular target: T4, rHuman Erythropoietin R/Fc Chimera, CF (R&D Systems Cat#963-ER) (human, UniProt P19235 25-250); test: ECL multispot (MSD) assay, spotted antigen; Fab 20.00 (head prints uM)
T4 construct: Bought recombinant protein; also called EPO R; EPO R/Fc; Fc part of the bought chimera not given
T4 sequence (looked up): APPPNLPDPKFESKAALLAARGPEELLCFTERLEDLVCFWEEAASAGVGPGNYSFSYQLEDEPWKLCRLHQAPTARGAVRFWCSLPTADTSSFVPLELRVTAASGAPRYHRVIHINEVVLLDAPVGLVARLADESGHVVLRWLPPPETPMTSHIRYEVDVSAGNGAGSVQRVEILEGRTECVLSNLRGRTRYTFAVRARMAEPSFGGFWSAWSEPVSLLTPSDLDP

[5] = molecular target: T5, Recombinant Human DLL4 (R&D Systems Cat#1506-D4/CF) (human, UniProt Q9NR61 27-524); test: as above
T5 construct: Bought recombinant protein; also called delta-like protein 4

[6] = molecular target: T6, rHuman ErbB2/Fc Chimera, CF (R&D Systems Cat#1129-ER) (human, UniProt P04626 23-652); test: as above
T6 construct: Bought recombinant protein; Fc part of the bought chimera not given

[7] = molecular target: T7, rHuman EGF R/Fc Chimera, CF (R&D Systems Cat#344-ER) (human, UniProt P00533 25-645); test: as above
T7 construct: Bought recombinant protein; Fc part of the bought chimera not given

[8] = molecular target: T8, rHuman HGF R/c-MET/Fc Chimera, CF (R&D Systems Cat#358-MT/CF) (human, UniProt P08581 25-932); test: as above
T8 construct: Bought recombinant protein; also called HGF R/Fc; Fc part of the bought chimera not given

[9] = molecular target: T9, rHuman Notch-1/Fc Chimera, CF (R&D Systems Cat#3647-TK) (human, UniProt P46531 19-526); test: as above
T9 construct: Bought recombinant protein; Fc part of the bought chimera not given

[10] = molecular target: T10, rHuman CD44/Fc Chimera, CF (R&D Systems Cat#3660-CD) (human, UniProt P16070 21-220); test: as above
T10 construct: Bought recombinant protein; Fc part of the bought chimera not given

[11] = molecular target: T11, rHuman IGF-1 sR, CF (R&D Systems Cat#391-GR) (human, UniProt P08069 31-932); test: as above
T11 construct: Bought soluble receptor; The column head prints only 'IGF-1'; also called insulin-like growth factor-1 soluble receptor

[12] = molecular target: T12, rHuman P-Cadherin/Fc Chimera, CF (R&D Systems Cat#861-PC) (human, UniProt P22223 108-654); test: as above
T12 construct: Bought recombinant protein; Fc part of the bought chimera not given

[13] = molecular target: T13, rHuman Erythropoietin R/Fc Chimera, CF (R&D Systems Cat#963-ER) (human, UniProt P19235 25-250); test: Multispot ECL (MSD) titration; antigen spotted on plate; Fab 232.5 nM; blank spot 460
T13 construct: Bought Fc chimera; also called EPO R/Fc; EPO R; Fc part of the bought chimera not given
T13 sequence (looked up): T4 sequence (looked up)

[14] = molecular target: T14, Recombinant Human DLL4 (R&D Systems Cat#1506-D4/CF) (human, UniProt Q9NR61 27-524); test: as above
T14 construct: Bought recombinant protein; also called delta-like protein 4; rHuman DLL4

[15] = molecular target: T15, rHuman Notch-1/Fc Chimera, CF (R&D Systems Cat#3647-TK) (human, UniProt P46531 19-526); test: as above
T15 construct: Bought Fc chimera; Fc part of the bought chimera not given

[16] = molecular target: T16, rHuman CD44/Fc Chimera, CF (R&D Systems Cat#3660-CD) (human, UniProt P16070 21-220); test: as above
T16 construct: Bought Fc chimera; Fc part of the bought chimera not given

[17] = molecular target: T17, rHuman IGF-1 sR (IGF-1 sR), CF (R&D Systems Cat#391-GR) (human, UniProt P08069 31-932); test: as above
T17 construct: Bought soluble receptor; also called insulin-like growth factor-1 soluble receptor

[18] = molecular target: T18, rHuman P-Cadherin/Fc Chimera, CF (R&D Systems Cat#861-PC) (human, UniProt P22223 108-654); test: as above
T18 construct: Bought Fc chimera; Fc part of the bought chimera not given

ECL signal [1]: 2150
ECL signal [2]: 2450
ECL signal [3]: 2030
B1: Fab VH1-46_IGHD7-27*01_IGHJ2*01 & L6_IGKJ1*01 (Fab, V domains shown)
VH: QVQLVQSGAEVKKPGASVKVSCKASGYTFTSYYMHWVRQAPGQGLEWMGIINPSGGSTSYAQKFQGRVTMTRDTSTSTVYMELSSLRSEDTAVYYCARANWGYWYFDLWGRGTLVTVSS
VL: not shown
notes: Germline Fab made in E. coli; VH was cloned in Plasmid A (CH1 constant region, His6 and Flag tags) and the kappa VL in Plasmid C (kappa CL); Only the variable domains are tied to this Fab by name

ECL signal/noise ratio [4]: 1.1
ECL signal/noise ratio [5]: 157
ECL signal/noise ratio [6]: 1.2
ECL signal/noise ratio [7]: 1.1
ECL signal/noise ratio [8]: 0.9
ECL signal/noise ratio [9]: 1.2
ECL signal/noise ratio [10]: 1.1
ECL signal/noise ratio [11]: 1.1
ECL signal/noise ratio [12]: 1.1
B2: Fab VH5-51_IGHD5-18*01>3_IGHJ4*01 G100K/G104T & V3-4_IGLJ1*01 (Fab, V domains shown)
VH: EVQLVQSGAEVKKPGESLKISCKGSGYSFTSYWIGWVRQMPGKGLEWMGIIYPGDSDTRYSPSFQGQVTISADKSISTAYLQWSSLKASDTAMYYCARRKYSYTYDYFDYWGQGTLVTVSS
VL: QTVVTQEPSFSVSPGGTVTLTCGLSSGSVSTSYYPSWYQQTPGQAPRTLIYSTNTRSSGVPDRFSGSILGNKAALTITGAQADDESDYYCVLYMGSGISYVFGTGTKVTVL
notes: Tested as a Fab; The constant parts are the same as for the parent Fab (CH1 with His6/Flag tags, lambda CL); also called KT double mutant; H:KT

ECL signal [13]: 1470
ECL signal [14]: 3590
ECL signal [15]: 778
ECL signal [16]: 607
ECL signal [17]: 569
ECL signal [18]: 655
B3: Fab VH1-46_IGHD6-13*01_IGHJ4*01 & O1_IGKJ1*01 (Fab, V domains shown)
VH: QVQLVQSGAEVKKPGASVKVSCKASGYTFTSYYMHWVRQAPGQGLEWMGIINPSGGSTSYAQKFQGRVTMTRDTSTSTVYMELSSLRSEDTAVYYCAREGYSSSWYDYFDYWGQGTLVTVSS
VL: DIVMTQTPLSLPVTPGEPASISCRSSQSLLDSDDGNTYLDWYLQKPGQSPQLLIYTLSYRASGVPDRFSGSGSGTDFTLKISRVEAEDVGVYYCMQRIEFPSWTFGQGTKVEIKR
notes: Germline library Fab expressed in E. coli; VH was cloned into Plasmid A (CH1 constant region, His6 and Flag tags); The kappa VL was cloned into Plasmid C (kappa CL)
